Test [1] addresses S protein of the novel coronavirus SARS-CoV-2 (SARS-CoV-2, UniProt P0DTC2 14-1273). Nature of the test: cell-based or functional assay.
Test [2] addresses biotin-labeled SARS-COV-2 RBD domain (SARS-CoV-2, UniProt P0DTC2 319-541). Nature of the test: SPR, Biacore T200, biotin-RBD on SA chip, antibody as analyte.

The values that follow come from patent US20230183322A1 (PEKING UNIVERSITY, published 2023).

B1: ABU-379 (antibody, V domains shown)
VH: EVQLVESGGGLVQPGGSLRLSCAASGFIVSSNYMSWVRQAPGKGLEWVSVIYSGGSTYYADSVKGRFTISRDNSKNTLYLRMNSLRAEDTAVYYCARAPYCSSRSCETWGQGTLVTVSS
VL: DIQMTQSPSSLSASVGDRVTITCQASQDIRNYLNWYQQKPGKAPNLLIYDASNLETGVPSRFSGSGSGTDFTFTINSLQPEDIATYYCQQYDNLPITFGQGTRLEIK
One may read the Kd as the free concentration of one partner at which half of the binding sites on the other are occupied at equilibrium, for simple one-to-one binding. A low value points to higher affinity. Consider B1, for which the “IC50 for neutralizing SARS-CoV-2 pseudovirus (Huh-7 cells, luciferase)” value (“IC50” for short) in test [1] is < 0.5 µg/mL. Besides, in test [2], the Kd is < 10 nM.

B2: ABU-381 (antibody, V domains shown)
VH: EVQLVESGGGLVQPGGSLRLSCAVSGFIVSRNYMTWVRQAPGKGLEWVSLIYSGGSTFYTNSVKGRFTISRDNSKNTLYLQMDSLRAEDTAVYYCARGPYPRFDYWGQGTLVTVSS
VL: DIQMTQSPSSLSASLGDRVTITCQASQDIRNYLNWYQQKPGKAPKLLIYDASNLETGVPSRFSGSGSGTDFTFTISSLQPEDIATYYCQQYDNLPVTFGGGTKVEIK
For B2, the “IC50” value in test [1] is < 0.1 µg/mL. Further, in test [2], the Kd is < 1 nM.

B3: ABU-391 (antibody, V domains shown)
VH: EVQLVESGGGLIQPGGSLRLSCAASGFIVSSNYMSWVRQAPGKGLEWVSVIYSGGSTYYADSVKGRFTISRDNSKNTLYLQMNSLRAEDTAVYYCARDYGDYYFDYWGQGTLVTVSS
VL: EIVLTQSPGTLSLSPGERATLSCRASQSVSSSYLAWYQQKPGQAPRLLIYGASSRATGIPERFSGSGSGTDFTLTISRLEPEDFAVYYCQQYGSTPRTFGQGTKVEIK
Regarding B3, in test [1], the “IC50” value is < 1 µg/mL. Besides, in test [2], the Kd is < 20 nM.

B4: ABU-377 (antibody, V domains shown)
VH: QVQLVESGGGLVQPGGSLRLSCAASGLIVSSNYMSWVRQAPGEGLEWVSVIYSGGSTYYADSVKGRFTISRDTSKNTLYLQMNSLRAEDTAVYYCARARIYTYGPDYWGQGTLVTVSS
VL: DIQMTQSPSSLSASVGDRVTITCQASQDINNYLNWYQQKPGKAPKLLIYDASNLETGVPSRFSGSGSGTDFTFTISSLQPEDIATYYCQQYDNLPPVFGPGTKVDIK
Turning to B4, in test [1], the “IC50” value is < 0.5 µg/mL. Further, the Kd in test [2] was < 10 nM.

B5: ABU-375 (antibody, V domains shown)
VH: EVQLVESGGGLVQPGGSLRLSCAASGLTVSSNYMSWVRQAPGKGLEWVSVIYSGGSTFYADSVKGRFTISRDNSKNTLYLQMNSVRAEDTAVYYCARLPYGMDVWGQGTTVTVSS
VL: DIQMTQSPSSLSASVGDRVTITCQASQDVSKYLNWYQQKPGKAPKLLIHDASNLQTGVPSRFSGGGSGTDFTFTISSLQPEDIATYYCQQYDNLPVTFGGGTKVEIK
Regarding B5, the “IC50” value in test [1] is < 0.1 µg/mL. For the same molecule, in test [2], the dissociation constant Kd is < 10 nM.

B6: ABU-376 (antibody, V domains shown)
VH: EVQLVESGGGLVQPGGSLRLSCAASGLTVSSNYMSWVRQAPGKGLNWVSVIYSGGSTYYADSVKGRFTISRDNSKNTLYLEMNSLKPEDTAVYYCARLPYGMDVWGQGTTVTVSS
VL: DIQMTQSPSSLSASVGDRVTITCQASQDIRNYLNWYQQKPGKAPKLLIHDASNLETGVPSRFIGSGSGTDFTFTISSLQPEDIATYYCQQYDNLPITFGQGTRLEIK
B6: in test [1], the “IC50” value was < 0.1 µg/mL. Besides, in test [2], the Kd was < 10 nM.

B7: ABU-380 (antibody, V domains shown)
VH: EVQLVESGGGLVQPGGSLRLSCAASGFTVSSNYMSWVRQAPGKGLEWVSLIYPGGSTYYADSVEGRFTISRDNSKNTLYLQMNSLRAEDTAVYYCAREIRVITPVEVWGQGTLVTVSS
VL: DIQMTQSPSSLSASVGDRVTITCQASQDINKYLNWYQLKPGKAPNLLIYDASNLETGVPSRFSGSGSGTDFTFTISSLQPEDIATYYCHQYDNLPRTFGQGTKVEIK
For the molecule B7, the “IC50” value in test [1] was < 0.1 µg/mL. In addition, the Kd in test [2] was < 1 nM.

B8: ABU-386 (antibody, V domains shown)
VH: EVQLVESGGGLVQPGGSLRLSCAASGVTVSSNYMSWVRQAPGKGLEWVSAVYSGGSTYYADSVKGRFTISRHNSKNTLYLQMKSLRPEDTAIYYCARLINHYYDSSGDGGAFDIWGQGTMVTVSS
VL: QSALTQPASVSGSPGQSITISCTGTSSDVGSYNLVSWYQQRPGKAPKLILYEVTKRPSGVSNRFSGSKSGNTASLAISGLQAEDEADYYCCSYAGSSTWVFGGGTKLTVL
Regarding B8, the “IC50” value in test [1] was < 0.1 µg/mL. Besides, the Kd in test [2] is < 10 nM.
